Measured values as given in IntAct's records for PubMed 18494562.

B1: Raf homolog serine/threonine-protein kinase Raf (Drosophila melanogaster (Fruit fly)), P11346 (parent)
chain: MSSESSTEGDSDLYDPLAEELHNVQLVKHVTRENIDALNAKFANLQEPPAMYLIEYQELTSKLHELEAKEQELMERLNSQDQQEDSSLVERFKEQPHYQNQTQILQQQRQLARVHHGNDLTDSLGSQPGSQCGTLTRQPKILLRAHLPNQQRTSVEVISGVRLCDALMKALKLRQLTPDMCEVSTTHSGRHIIPWHTDIGTLHVEEIFVRLLDKFPIRTHIKHQIIRKTFFSLVFCEGCRRLLFTGFYCSQCNFRFHQRCANRVPMLCQPFPMDSYYQLLLAENPDNGVGFPGRGTAVRFNMSSRSRSRRCSSSGSSSSSKPPSSSSGNHRQGRPPRISQDDRSNSAPNVCINNIRSVTSEVQRSLIMQARPPLPHPCTDHSNSTQASPTSTLKHNRPRARSADESNKNLLLRDAKSSEENWNILAEEILIGPRIGSGSFGTVYRAHWHGPVAVKTLNVKTPSPAQLQAFKNEVAMLKKTRHCNILLFMGCVSKPSLAIVTQWCEGSSLYKHVHVSETKFKLNTLIDIGRQVAQGMDYLHAKNIIHRDLKSNNIFLHEDLSVKIGDFGLATAKTRWSGEKQANQPTGSILWMAPEVIRMQELNPYSFQSDVYAFGIVMYELLAECLPYGHISNKDQILFMVGRGLLRPDMSQVRSDAPQALKRLAEDCIKYTPKDRPLFRPLLNMLENMLRTLPKIHRSASEPNLTQSQLQNDEFLYLPSPKTPVNFNNFQFFGSAGNI
partner: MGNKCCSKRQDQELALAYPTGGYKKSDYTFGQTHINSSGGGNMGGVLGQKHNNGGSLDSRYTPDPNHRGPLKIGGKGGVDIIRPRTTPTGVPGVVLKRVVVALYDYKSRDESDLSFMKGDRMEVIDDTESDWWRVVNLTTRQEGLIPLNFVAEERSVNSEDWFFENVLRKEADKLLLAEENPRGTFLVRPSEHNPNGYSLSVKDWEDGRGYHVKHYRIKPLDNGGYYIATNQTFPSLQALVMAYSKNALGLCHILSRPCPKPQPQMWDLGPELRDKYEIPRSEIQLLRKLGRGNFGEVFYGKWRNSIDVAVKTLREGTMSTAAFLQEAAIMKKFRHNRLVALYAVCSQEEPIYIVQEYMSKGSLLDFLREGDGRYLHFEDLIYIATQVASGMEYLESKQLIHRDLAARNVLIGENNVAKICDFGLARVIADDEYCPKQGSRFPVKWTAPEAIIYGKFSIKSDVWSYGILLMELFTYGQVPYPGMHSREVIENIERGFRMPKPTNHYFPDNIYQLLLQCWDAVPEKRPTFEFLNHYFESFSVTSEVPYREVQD
B2: Raf homolog serine/threonine-protein kinase Raf (Drosophila melanogaster (Fruit fly)), P11346 (parent)
chain: B1 chain

Variants of: B1
Conditions: with src64_drome Src64B

effect of a mutation on the interaction	Variant
disrupting interaction	Y510F

Variants of: B2
Conditions: with dsor1_drome Dsor1, Q24324
Chain of dsor1_drome Dsor1, Q24324 (Q24324 whole entry): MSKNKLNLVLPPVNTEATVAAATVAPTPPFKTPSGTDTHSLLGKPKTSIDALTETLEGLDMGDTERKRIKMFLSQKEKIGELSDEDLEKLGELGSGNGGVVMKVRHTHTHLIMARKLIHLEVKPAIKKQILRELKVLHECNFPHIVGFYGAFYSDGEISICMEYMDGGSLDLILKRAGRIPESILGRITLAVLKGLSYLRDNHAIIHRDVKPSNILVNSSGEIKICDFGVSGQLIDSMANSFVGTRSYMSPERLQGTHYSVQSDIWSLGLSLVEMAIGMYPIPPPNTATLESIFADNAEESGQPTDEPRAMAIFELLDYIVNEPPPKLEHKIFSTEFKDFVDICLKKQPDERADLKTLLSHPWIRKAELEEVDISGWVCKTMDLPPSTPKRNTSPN

effect of a mutation on the interaction	Variant
increasing interaction	Y510E
